Reference: article PMC4569402
Values joined by “and” are separate entries in the source; they are usually repeats but may differ in a detail not shown here. Equal entries are not always repeated.

How the values were obtained:
[1] = target: BNP with deletion of aa 1-38 (BNP-Δ38) (influenza B virus (B/panama/45/1990)); assay: negative-stain electron microscopy
[2] = target: BNP with deletion of aa 1-66 (BNP-Δ66) (influenza B virus (B/panama/45/1990)); assay: negative-stain electron microscopy

Substance	stoichiometry N [1]	stoichiometry N [2]
BNP with deletion of aa 1-38 (BNP-Δ38) (domain or fragment)	4 and 5	–
BNP with deletion of aa 1-66 (BNP-Δ66) (domain or fragment)	–	4 and 5
